The nature of the series: self-splicing fitness, log relative to wild type (ln ratio); higher = more splicing; Tetrahymena group I intron in knt gene, E. coli kanamycin selection, DiMSum; sequences stand for … in CUCUCU…GGAGGGAAAAGUUAUCAGGCAUGCACCUGGUAGCUAGUCUUUAAACCAAUAGAUUGCAUCGGUUUAAAAGGCAAGACCGUCAAAUUGCGGGAAAGGGGUCAACAGCCGUUCAGUACCAAGUCUCAGGGGAAACUUUGAGAUGGCCUUGCAAAGGGUAUGGUAAUAAGCUGACGGACAUGGUCCUAACCACGCAGCCAAGUCCUAAGUCAACAGAUCUUCUGUUGAUAUGGAUGCAGUUCACAGACUAAAUGUCGGUCGGGGAAGAUGUAUUCUUCUCAUAAGAUAUAGUCGGACCUCUCCUUAAUGGGAGCUAGCGGAUGAAGUGAUGCAACACUGGAGCCGCUGGGAACUAAUUUGUAUGCGAAAGUAUAUUGAUUAGUUUUGGAGUACUCGUGGUCG
Summed up:
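A randomised library covering all eight P1ex-region intron nucleotides was built with the intron in the knt kanamycin-resistance gene on pET-22b(+) and held in E. coli BL21(DE3). Cells were grown overnight at 37°C or 30°C on LB agar, with or without 25 μg/mL kanamycin, plus 100 μg/mL carbenicillin, 50 μM IPTG and 0.2% rhamnose, and pooled colonies were amplicon-sequenced on an Illumina HiSeq 2500. DiMSum fitness is the error-weighted combination of wild-type-normalised replicate fold changes, kanamycin versus none.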

± gives the uncertainty stated by the source.

For the sequence CCGCAGCAAUAUUACGACGG, the “self-splicing fitness (ln)” value was -2.83 ± 0.11 (30 °C) and -2.64 ± 0.19 (37 °C). The matching figures for UGUUAGCAAUAUUACGAGAA: -2.27 ± 0.34 and -1.85 ± 0.38. Take GCAUAGCAAUAUUACGUAAA: the “self-splicing fitness (ln)” value by setting is: (30 °C) -2.43 ± 0.074; (37 °C) -1.05 ± 0.08. For GGGCAGCAAUAUUACGAAGA, the “self-splicing fitness (ln)” value was -2.31 ± 0.21 (30 °C) and -0.958 ± 0.16 (37 °C).

Consider GCAUAGCAAUAUUACGCUUG, for which the “self-splicing fitness (ln)” value by setting is: (30 °C) -3.29 ± 0.21; (37 °C) -2.64 ± 0.31. Consider ACGUAGCAAUAUUACGGCUC, for which the “self-splicing fitness (ln)” value runs as follows: (30 °C) -1.2 ± 0.12; (37 °C) -0.844 ± 0.15.

Regarding AGGUAGCAAUAUUACGUAAG, the “self-splicing fitness (ln)” value runs as follows: (30 °C) -2.267 ± 0.017; (37 °C) -1.25 ± 0.034. Turning to GACAAGCAAUAUUACGAAUU, the “self-splicing fitness (ln)” value (30 °C) is -1.56 ± 0.063 and the “self-splicing fitness (ln)” value (37 °C) is -1.47 ± 0.099. The matching figures for GAAGAGCAAUAUUACGAUUA: -2.33 ± 0.23 and -1.85 ± 0.17. Turning to GCCGAGCAAUAUUACGCCCC, the “self-splicing fitness (ln)” value (30 °C) was -1.58 ± 0.37. AAAGAGCAAUAUUACGCGGA: the “self-splicing fitness (ln)” value is -3.29 ± 0.33 (30 °C) and -2.33 ± 0.22 (37 °C). With GCGUAGCAAUAUUACGCCGU, the “self-splicing fitness (ln)” value reads like this: (30 °C) -2.86 ± 0.26; (37 °C) -3.17 ± 0.26. The matching figures for ACGGAGCAAUAUUACGGACG: -1.96 ± 0.19 and -1.17 ± 0.22. On to GUCAAGCAAUAUUACGUGCG, for which the “self-splicing fitness (ln)” value is -2.29 ± 0.1 (30 °C) and -0.638 ± 0.1 (37 °C).

Consider GUAAAGCAAUAUUACGUAAC, for which the “self-splicing fitness (ln)” value is, setting by setting: (30 °C) -1.7 ± 0.17; (37 °C) -1.38 ± 0.28. As to CUUUAGCAAUAUUACGGCGC, the “self-splicing fitness (ln)” value (30 °C) is -2.73 ± 0.37. In the case of GCUGAGCAAUAUUACGCAUC, the “self-splicing fitness (ln)” value (30 °C) was -1.72 ± 0.26 and the “self-splicing fitness (ln)” value (37 °C) was -0.374 ± 0.33. The corresponding values for AGAUAGCAAUAUUACGCUGA are -1.79 ± 0.14 and -0.681 ± 0.17. Take UGACAGCAAUAUUACGAAUU: the “self-splicing fitness (ln)” value (30 °C) is -2.9 ± 0.2 and the “self-splicing fitness (ln)” value (37 °C) was -1.53 ± 0.21. As for GUAGAGCAAUAUUACGCCAC, the “self-splicing fitness (ln)” value (30 °C) is -1.7 ± 0.29. Take GCGAAGCAAUAUUACGGGAA: the “self-splicing fitness (ln)” value is, setting by setting: (30 °C) -3.48 ± 0.43; (37 °C) -2.68 ± 0.33.

As for UACAAGCAAUAUUACGUACA, the “self-splicing fitness (ln)” value is, setting by setting: (30 °C) -1.56 ± 0.084; (37 °C) -0.15 ± 0.086. On to AUACAGCAAUAUUACGUACC, for which the “self-splicing fitness (ln)” value (30 °C) was -0.828 ± 0.11 and the “self-splicing fitness (ln)” value (37 °C) is -0.283 ± 0.15.

In the case of UCGUAGCAAUAUUACGUGAA, the “self-splicing fitness (ln)” value runs as follows: (30 °C) -2.73 ± 0.16; (37 °C) -1.8 ± 0.17. As to GGAAAGCAAUAUUACGCAGC, the “self-splicing fitness (ln)” value runs as follows: (30 °C) -2.07 ± 0.22; (37 °C) -1.53 ± 0.23.

Turning to AGUAAGCAAUAUUACGUCAG, for the setting “37 °C”, the “self-splicing fitness (ln)” value is -2.58 ± 0.3.

As for GAGGAGCAAUAUUACGACUA, the “self-splicing fitness (ln)” value runs as follows: (30 °C) -1.32 ± 0.43; (37 °C) -1.47 ± 0.37.

For the sequence GGGCAGCAAUAUUACGACAG, the “self-splicing fitness (ln)” value (30 °C) was -2.72 ± 0.39 and the “self-splicing fitness (ln)” value (37 °C) is -0.948 ± 0.32. Take GUAAAGCAAUAUUACGUAAU: the “self-splicing fitness (ln)” value (30 °C) was -1.58 ± 0.073 and the “self-splicing fitness (ln)” value (37 °C) is -0.314 ± 0.098. Consider UUACAGCAAUAUUACGAAAA, for which the “self-splicing fitness (ln)” value reads like this: (30 °C) -2.35 ± 0.17; (37 °C) -0.806 ± 0.14. In the case of CGAUAGCAAUAUUACGAGAU, the “self-splicing fitness (ln)” value is, setting by setting: (30 °C) -4.01 ± 0.39; (37 °C) -2.73 ± 0.25. For CUAAAGCAAUAUUACGGCAU, the “self-splicing fitness (ln)” value reads like this: (30 °C) -3.69 ± 0.27; (37 °C) -3.09 ± 0.4. As for AAUUAGCAAUAUUACGUCUU, the “self-splicing fitness (ln)” value (30 °C) turned out to be 0.444 ± 0.091 and the “self-splicing fitness (ln)” value (37 °C) amounted to 0.46 ± 0.098. As to GGACAGCAAUAUUACGAUUC, the “self-splicing fitness (ln)” value is -0.338 ± 0.063 (30 °C) and 0.353 ± 0.078 (37 °C). Take CCAGAGCAAUAUUACGGGUA: the “self-splicing fitness (ln)” value is -2.35 ± 0.29 (30 °C) and -2.3 ± 0.3 (37 °C). CGAGAGCAAUAUUACGAAAU: the “self-splicing fitness (ln)” value is, setting by setting: (30 °C) -2.81 ± 0.24; (37 °C) -2.97 ± 0.37.

In the case of UGUUAGCAAUAUUACGGGCA, the “self-splicing fitness (ln)” value is, setting by setting: (30 °C) -0.664 ± 0.16; (37 °C) 0.194 ± 0.18. As to UAGGAGCAAUAUUACGGUAA, the “self-splicing fitness (ln)” value was -3.41 ± 0.34 (30 °C) and -2.26 ± 0.31 (37 °C).

Values taken from the supplement of paper PMC7877785.
